Experiment: yeast display, Sf9 membrane polyspecificity reagent, FACS + sequencing; frameworks hold sequencing errors
Procedure, shortened: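 After 36–48 hours of galactose induction, yeast (Saccharomyces cerevisiae BJ5465) displaying a synthetic nanobody library were stained at 4 °C for 1 hour with 10% biotinylated, detergent-solubilized Sf9 membrane reagent. Streptavidin microbeads enriched the stained cells before FACS sorting into low and high (top ~1%) gates on anti-HA and streptavidin fluorescence. Each clone's polyreactivity label reflects its gate of origin.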

Row | Sequence | polyreactivity (PSR sort gate)
1 | QVQLVESGGGLVQAGGSLRLSCAASGFTFRRYVMGWYRQAPGKERELVAAISSGGRTNYADSVKGRFTISRYNAKNTVYLQMNSLKPEDTAVYYCGYLDRYHHLRYWGQGTQVTVSS | high polyreactivity
2 | QVQLVESVGGLVQAGGSLRLSCAASGSTFLVYAMGWYRQAPGKERELVAAITQIDGSTYYADSVKGRFTISRDNAKNTVYLQMNSLKPEDTAVYYCAARYFWTYEYDYWGQGTQVTVSS | low polyreactivity
3 | QVQLVESGGGLVQAGGSLRLSCAASGSIFDIYAMGWYRQAPGKERELVASIRRRGGSTYYADSVKGRFTISRDNAKNTVYLQMNSLKPEDTAVYYCNARRVWLRTTGTNWPERGYWGQGTQVTVSS | high polyreactivity
4 | QVQLVESGGGLVQAGGSLRLSCAASGIIFSDNAMGWYRQAPGKERELVAAIDWSGGSTYYADSVKGRFTISRDNAKNTVYLQMNSLKPEDTAVYYSAAEYRDYVPVNDTGDYWGQGTQVTVSS | low polyreactivity
5 | QVQLVESGGGLVQAGGSLRLSCAASGRIFWPYAMGWSRQAPGKERELVAAITSGGSTYYADSVKGRFTISRDNAKNTVYLQMNSLKPEDTAVYYCAKRSSGVSVPVAYGGIKRYNSWGQGTQVTVSS | low polyreactivity
6 | QVQLVETGGGLVQAGGSLRLSCAASGRIFGVNARGWYRQAPGKERELVAAIFSGGSTYYADSVKGRFTISRDNAKNTVYVEMNSLKPEDTAVYYCAARFARYDWSMYYWGQGTQVTVSS | low polyreactivity
7 | QVQLVESGRGLVQAGGSLRLSCAASGSICGYYTMGWYRQAPGKERELVAAITSGGSTNYADSVKGRFTISRDNAKNTVYLQMNSLKPEDTAVYYCAKVSYYPWRYDYWGQGTQVTVSS | low polyreactivity
8 | QVQLVESGGGLVQAGGSLRLSCGASGRTFFWYDMGWYRQAPGKERELVAAISSSTRTKYADSVKGRFTISRDNAKNTVYLQMNSLKPEDSAVSYCAATSDYYHYWYYSSVRRFDYWGQGTQVTVSS | high polyreactivity
9 | QLQLVESGGGLVQAGGSLRLSCAASGSIFDVYTMGWYRQAPGKERELVAAINTCGGSTYYADSVKGRFTISRDNAKNTVYLQMNSLKPEDTAVYYCAASVYHYGPLYYWGQGTQVTVSS | low polyreactivity
10 | QVQLVESGGGLVQAGGSLRLSCAASGIIFSTYAMGWYRQAPGKERELVAAISSGGRTYYADSVKGRFTISRDNAKNTVYLQMNSLKPEDTAVYYCAASYYRYYSGWTPYYYWGQGTQVTVSS | high polyreactivity
11 | QVQLVESGGGLVQAGGSLRLSCAASGRILGWNAMGWYRQAPGKERELVAAISTSGTDTYYADSVKGRFTISSDNAKNTVYLQMNCLIPEDTAVYYCAADTVTIYWGLSVSYGCWGQGTQVTVSS | low polyreactivity
12 | QVHLVESGGGLVQAGGSLRLTCAASGSIFLGHAMGWYRQAPGNERDLVAAISSITGRTYYADSVKGRFTISRDNAKNNVYLHMNSLKPEDTAVYYCNKVSRSFIVNTDDYWGQGTQVTVSS | high polyreactivity
13 | QVQLVESGGGLVQAGGSLRLSCAASGRTFGGNAMGWYRQAPGKERELVAAISSGGSTNYADSVKGRFTISRDYAKNTVYLQMNSLKPEDSAVYYCAAGWYWWARYDYWGQGTQVTVSS | low polyreactivity
14 | QVQLVESGGGLVQAGGSLRLSCAASGRTFNAYAMGWYRLAPWKERELVAAISSGGSTYYADSVKGRFTISRDNAKNTVYLQMNSLKQEDTAVYYSNKVYGWRQFDYWGNGTQVTVSS | high polyreactivity
15 | QVQLVESGGGLVQAGGSLRLSCAASGRTFVANAMGWYRQAPGKEREFVAAITGGDSTYYADSVKGRFTISRDNAKNTVYLQMNSLKPEDTAVYYCAAPYNFWNFFDLIYVWDGYDYWGQGTQVTVSS | low polyreactivity
16 | QVQLVESGGGLVQAGGSLRLSCAASGYTIYIYAMGWYRQAPGKEREFVATISRSGGSTSYADSVKGRFTISRDNAKNTVYLQMNSLKPEDTSVYYCAAEWGYYAVGAQYYYWGQGTQVTVSS | high polyreactivity
17 | QVQLVESGGGLVQAGGSLRLSCAASGRTFGYNAMGWYRQAPGKERELVATITWNGGRTYYADSVKGRFTISRDNAKNTVYLQMNSLKPEDTAVYYCAKGYPIIGRHGHWGQGTQVTVSS | high polyreactivity
18 | QVQLVESGGGLVQAGGSLRLSCAASGFTFDYNAMGWYRQAPGKERELVASIDQSGGSTYYADSVKGRFTISRDNAKNTVYLQMNSLKPEDTAVYYCAAEGYYTSTYDLYDYYYWGQGTQVTVSS | low polyreactivity
19 | QVQLVDSGGGLVQAGGSLRLICAASGRTIDNYAMGWYRQAPGKERELVAVISRSGDRRYYPDSEKGRFTISRDNAKNTVYLPMKSLKPEDTAVYYCNAVYGRSIYDGLFYTYDYWGQCTQVTVSS | high polyreactivity
20 | QVQLVESGGGLVQAGGSLRLRCAASGRTFRVYAMGWYRQAPGKERELVATITSSGGSTYYADSVKGRFTISRDNAKNTVYLQMNSLKPEDTAVYYCNVSVYNNYDSSYYYWGQGTQVTVSS | low polyreactivity

Row | Sequence | polyreactivity (PSR sort gate)
21 | QVQLVESGGGLVQAGGSLRLSCAASGSIFEYYTMGWYIQAPGKERELVAGISWSGGSSYYADSVKGRFTISRDNAKNTVYLQMNSLKPEDTAVYYCAAGRTGWYWDSGSTYRYGYGYWGQGTQVTVSS | high polyreactivity
22 | QVQLVESGGGLVQPRGSLSLSCAASGYIFDYYDMGWYRPAPGKERELVAAISSSGGTTYYADSVKGRFTISRDNGKNTVYLQMNSLKPEDTAVYYCAAVAVLPRSDYWGQGTQVTVSS | high polyreactivity
23 | QVQLVESGGGLFQAGGSLRLSCAASGSIFWSYDMGWYRQAPGKERELVATITSGDSTYYADSVKGRFTISRDNAKNTVYLQMNSLKPEDTAVYYCAAGTYYRRTYWHREYDYWGQGTQVTVSS | low polyreactivity
24 | QVQLVESGGGLVQAGGSLRLSCAASGFTFWDYTMGWYRQAPGKERELVAAITRSGGRTYYADSVKGRFTISRDNAKNTVYLQMNSLKPEDTAVYYCAAKIWSKDEKHDYWGQGTQVTVSS | high polyreactivity
25 | QVQLVESGGGLVQAGGSLRLSCAASGSIFNYYAMGWYRQAPGKERELVAAITTSGGRTYYADSVKGRFTISRDNAKNTVYLQMNSLKPEDTAVYYCAARGYGRRAYVYRYDYWGQGTQVTVSS | high polyreactivity
26 | QVQLVESGGGLVQAGGSLRLSCAASGFTFSRYAMGWYRQAPGKERELVAAISLRGGRTYYADSVKGRFTISRDKTKNSVYLQMNSLKPEDTAVYYCNRDYRGPYYYWGQGSQVTVSS | high polyreactivity
27 | QVQLVESGGGLVQAGGSLRLSCAASGSIFGGYAMGWYRQAPGKERELVAAISSGGSTYYADSVKGRFTISRDNAKNTVYLQMNSLKPEDTAVYYCATSTFAYRRNSYYYTRPRFGYWGQGTQVTVSS | high polyreactivity
28 | QVQLVESGGGLVQAGGSLRLSCAASGRTFGPYAMGWYRQAPGKEREFVAAMSYSGGSTYYADSVKGRFTISRDTAKNTVFLQINSLKPEDTAVYYCAVDIDSNSGTRDYWGQGTQVTVSS | low polyreactivity
29 | QVQLVESVGGFVQARGSLRLSCAASGFTFSYNAMRWYSQAPGKERELVATIRSSGGSTNYADSVKGRFTISRDNAKNTVYVQMNSLKPEDTAVYYCAADFSYYSTYDYWGLGTQVTVSS | low polyreactivity
30 | QVQLVESGGGLVQAGGSLRLSCAASGFTFYVYVMGWYRPAPGKERELVAGISRGGSTYYADSVKGRFTISRDTAKNTVYLQMNSLKPEDTAVYYCNARRAWSSTYGYWGQGTQVTVSS | high polyreactivity
31 | QVQLVESGGGLVQAGGSLRLSCAGSGRTFRTYTRGWYRQAPGKERELVAAISWSGSSTYYADSVKGRFTISRDNAKNTVYLQMNSLKPEDTAVYYCAARGLYDYGYWGQGTQVTVSS | high polyreactivity
32 | QVQLVESGGGLVQAGGSLRLSCAASGRTFIPYAMAWYRQAPGKEMELVAAISTTAGTTYYADSVKGRFTISRDNAKNTVYLQMNSLKPEDTAVYYCAAEGYGSFFVAMDYWGQGTQVTVSS | high polyreactivity
33 | QVQLVESGGGIVQAGGSLRLSCAASGRTFPRYAMGWYRQAPGKERELVAAISVRAGITYYADSVKGRFTISRDNAKNTVYLQMNSLKPEDTAVYYCAKDHWTTSYDEGDYWGQGTQVTVSS | low polyreactivity
34 | QVQLVESGGGLVQAGGSLRLSCAASGSIFWVYAMGWYRQAPGKERELVADISRSGGSTYYADSVKGRFTISRDNAKNTVYLQMNSLKPEDTAVYYCAAEYYGQVLFQPYVYQLMYYWGQGTQVTVSS | low polyreactivity
35 | QVQLVESGGGLVQAGGSLRLSCAASGYIFEYYAMGWYRQAPGKERELVAAISVGGGSTYYADSVKGRFTISRDNAKNTVYLQMNSLKPEDTAVYYCAAVQLYQKHQITYVAHEYWGQGTQVTVSS | low polyreactivity
36 | QVQLVESGGGLVQAGGSLRLSCAASGLIFRHYAMGWYRQAPGKERELVAAIDYSGGSTYYADSVKGRFTISRDNAKNTVYLQMNSLKPEDTAVYYCAADYFWLYYSEYGYWGQGTQVTVSS | low polyreactivity
37 | QVQLVESVGGLVQAGGSLRLSCAASGRIFRWNAMGWYRQAPGKEREFVAAISWSGGSTYYADSVKGRFTISRDNAKNTFYLQMNSLKPEDTAVYYCNKVGYYCVGTSQEFDYWGQGTQVTVSS | high polyreactivity
38 | QVQLVESGGGLVQAGGSLRLSCAASGRTFVFYAMGWYRPAPGKERQLVAAITSGTSTNYADSVKGRFTISRDNAKNTGYLQMNSLNPEDTAVYYCAAYWTDLTYSIGFGYWGQGTQVTVSS | low polyreactivity
39 | QVQLVESGGGLVQAGGSLRLSCAASGFIFRGKAMGWYRQAPGKERELVAAISSRGGSTYYADSVKGRFTISRDNAKNSVYLQMNSLKPEDTAVYYCAAGSTSGYFRYYYWGQGTQVTVSS | high polyreactivity
40 | QVQLVESGGGLVQAGGSLRLSCAASGRNFPYYAMGWYRQAPGKEMELVAAITRGVRTHYADSVKGRFTISRDNAKNTVYLQMNSLKPEDTAVYYCAREDWGSYSDMDSWGQGTQVTVSS | low polyreactivity
